B1: Nuclear receptor subfamily 1 group D member 2, residues 103 to 171; numbered along this chain, Q14995 (parent)
chain: CKVCGDVASGFHYGVHACEGCKGFFRRSIQQNIQYKKCLKNENCSIMRMNRNRCQQCRFKKCLSVGMSR
B2: Zinc finger protein ZIC 2, residues 250 to 295; numbered along this chain, O95409 (parent)
chain: QCIKQELICKWIDPEQLSNPKKSCNKTFSTMHELVTHVSVEHVGGP

Variants of: B1
Experiment: abundance fitness (aPCA) (normalised: wild type 0, dead -1); higher = more abundant; growth selection in yeast, the domain comes from the species named
Conditions: Homo sapiens

Abundance fitness of substitutions, site by site:
V7: K 0.167 | S -0.083 | C -0.526 | A -0.153 | T -0.126 | L -0.119 | D -0.001 | W -0.195 | P -0.295 | N -0.019 | E 0.057 | Q 0.118 | F -0.061 | M -0.032 | G -0.469 | R 0.032
C1: E -0.613 | G -0.939 | F -0.451
D6: R -0.857 | G -0.535 | S -0.706 | A 0.04 | Q -0.513 | K -0.862 | E -0.06 | T -0.47 | L -0.572 | V -0.56 | F -0.694 | Y -0.445 | M -0.345
V3: G -0.738 | I -0.293 | A -0.74 | D -0.763 | E -0.754 | R -1.25 | N -0.78 | S -0.161
G5: L -0.787 | T -0.802 | S -0.689 | V -0.815 | H -0.623 | W -0.684 | Q -0.476 | I -0.83 | M -0.226 | F -0.918 | A -0.621 | C -0.769 | Y -1.11 | D -0.645 | K -0.5 | P -0.598 | E -0.605 | R -0.824
K2: Y -0.7 | V -0.474 | A 0.016 | Q -0.049 | F -0.53 | S -0.336 | D -0.482 | W -0.673 | M -0.401 | N -0.011 | T -0.186 | R -0.029 | E -0.174 | L -0.491 | I -0.367 | C -0.578 | G -0.623
A8: L -0.998 | G -0.597 | D -0.724 | N -0.476 | M -0.584 | V -0.798 | Q -0.842 | C -0.494 | P -0.893 | F -0.855 | K -0.42 | R -0.897 | S -0.265 | T -0.363
C4: T -0.599 | E -0.687 | V -0.941 | S -0.819 | A -0.949 | W -0.83 | L -0.902 | G -0.795

Variants of: B2
Experiment: as above
Conditions: Homo sapiens

Abundance fitness of substitutions, site by site:
G44: I -0.363 | M -0.372 | H -0.292 | Q -0.267 | C -0.062 | T -0.045 | P -0.217 | V -0.273 | K -0.142 | R 0.057 | Y -0.357 | L -0.641 | N -0.019 | F -0.384 | E -0.2 | A -0.006 | W -0.082
H42: T -0.89 | I -0.862 | Y -0.971 | L -0.975 | P -1.13 | M -0.642 | S -0.854 | Q -0.909 | W -0.707 | N -1.25
P46: I -0.976 | C 0.1 | D 0.004 | T -0.673 | K 0.593 | L -0.556 | F -0.736 | H 0.193 | A -0.578 | W -0.709 | R -0.231
V43: L -0.299 | M -0.126 | P 0.129 | Y 0.485 | Q 0.116 | T 0.108 | R 0.226 | S 0.313 | E 0.587 | W -0.332 | H 0.012 | K 0.088 | A 0.052 | G 0.247 | F 0.063
G45: R -0.114 | Y -0.648 | K -0.134 | Q -0.217 | V -0.242 | P -0.195 | H -0.443 | C -0.017 | A 0.035 | D 0.034 | T -0.093 | S -0.244 | M -0.382 | I 0.133 | F -0.202 | E -0.032 | L -0.149
